Measurements reported in US20240376170A1 (BRIGHT PEAK THERAPEUTICS, published 2024).
Bridges are numbered along the chain shown (N, C = ends). Primed or numbered codes have the meaning given here. [ ]: non-standard residue; d: D form. 8x polyethylene glycol‑amino = O-(8x polyethylene glycol-amino)-tyrosine, SITE 45; 9x polyethylene glycol‑azido = O-(9x polyethylene glycol-azido)-tyrosine, SITE 42; Ygp(8) = Tyr, amino-capped PEG8 (O-(8x polyethylene glycol-amino)-tyrosine); Yn3(8) = Tyr, azide-capped PEG9 (O-(9x polyethylene glycol-azido)-tyrosine); Ygp = O-(8x polyethylene glycol-amino)-tyrosine (Tyr, amino-capped PEG8); Yn3 = O-(9x polyethylene glycol-azido)-tyrosine (Tyr, azide-capped PEG9); Ygp″ = O-(8x polyethylene glycol-amino)-tyrosine; Yn3″ = O-(9x polyethylene glycol-azido)-tyrosine; PEG4′ = 4x polyethylene glycol; hSer = N[C@@H](CCO)C(=O)O; Nle = CCCC[C@H](N)C(=O)O

Molecular target: T1, IL-2 receptor βγ complex (human, UniProt P14784 27-551; P31785 23-369)
T1 sequence (looked up) 1: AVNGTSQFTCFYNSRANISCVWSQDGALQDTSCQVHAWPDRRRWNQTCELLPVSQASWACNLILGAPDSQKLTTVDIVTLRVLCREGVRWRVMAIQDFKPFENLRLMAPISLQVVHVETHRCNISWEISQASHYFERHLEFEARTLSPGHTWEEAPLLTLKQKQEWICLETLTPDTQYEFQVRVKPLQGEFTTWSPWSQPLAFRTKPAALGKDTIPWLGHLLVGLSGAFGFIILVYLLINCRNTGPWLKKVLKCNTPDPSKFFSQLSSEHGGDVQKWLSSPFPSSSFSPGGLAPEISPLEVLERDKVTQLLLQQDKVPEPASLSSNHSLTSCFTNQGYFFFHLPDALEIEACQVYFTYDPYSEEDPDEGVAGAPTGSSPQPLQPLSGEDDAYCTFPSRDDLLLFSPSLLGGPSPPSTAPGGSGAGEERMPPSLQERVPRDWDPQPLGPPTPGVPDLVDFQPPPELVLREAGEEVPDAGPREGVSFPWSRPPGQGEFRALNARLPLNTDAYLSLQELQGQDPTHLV
T1 sequence (looked up) 2: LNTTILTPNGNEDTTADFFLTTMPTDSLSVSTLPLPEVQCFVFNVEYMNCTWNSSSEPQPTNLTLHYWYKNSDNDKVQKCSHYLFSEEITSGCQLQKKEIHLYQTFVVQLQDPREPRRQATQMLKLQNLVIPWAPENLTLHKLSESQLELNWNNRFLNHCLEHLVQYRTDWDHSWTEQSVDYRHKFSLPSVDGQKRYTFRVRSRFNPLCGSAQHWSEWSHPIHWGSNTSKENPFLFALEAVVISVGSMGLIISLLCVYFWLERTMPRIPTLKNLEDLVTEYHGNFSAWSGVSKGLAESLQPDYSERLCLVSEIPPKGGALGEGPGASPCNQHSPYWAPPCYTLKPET
Test: cell-based or functional assay

Row | Average EC50, pSTAT5 Assay in NK cells | Binder
1 | 37.4 nM | CMP-318 (ligand, lactam N-32; ends not checked) SGRVANLVGAPTSSSTKKTQLQLEHLLLDLQEILNGINNYKNPKLTR[Nle]L[hSer][Yn3]KF[Ygp][Nle]PKKATELKHLQCLEEELKPLEEVL[hSer]LAQSKNFHLRPRDLISNINVIVLELKGSETTF[hSer]CEYADETATIVEFLNRWITFSQSIISTLT
2 | 2.96 nM | CMP-328, uPa cleaved molecule (ligand, ends and bridges not checked; also: after uPa cleavage, remnants of the Lys9–Glu23 peptide linker not given here) APTSSSTKKTQLQLEHLLLDLQEILNGINNYKNPKLTR[Nle]L[hSer][Yn3″]KF[Ygp″][Nle]PKKATELKHLQCLEEELKPLEEVL[hSer]LAQSKNFHLRPRDLISNINVIVLELKGSETTF[hSer]CEYADETATIVEFLNRWITFSQSIISTLT
3 | 27 nM | CMP-330, uPa cleaved molecule (ligand, not fully specified; also: Lys9 side chain attached to another sequence, Glu23 side chain attached to another sequence) APTSSSTKKTQLQLEHLLLDLQEILNGINNYKNPKLTR[Nle]L[hSer]Y(9x polyethylene glycol‑azido)KFY(8x polyethylene glycol‑amino)[Nle]PKKATELKHLQCLEEELKPLEEVL[hSer]LAQSKNFHLRPRDLISNINVIVLELKGSETTF[hSer]CEYADETATIVEFLNRWITFSQSIISTLT
4 | 34.1 nM | CMP-317 (ligand, bridge N-31; not fully specified (bridges); ends not checked) GSGSGSG[PEG4′]APTSSSTKKTQLQLEHLLLDLQEILNGINNYKNPKLTR[Nle]L[hSer][Yn3]KF[Ygp][Nle]PKKATELKHLQCLEEELKPLEEVL[hSer]LAQSKNFHLRPRDLISNINVIVLELKGSETTF[hSer]CEYADETATIVEFLNRWITFSQSIISTLT
5 | 6.12 nM | CMP-330, MMP2 cleaved molecule (ligand, not fully specified; also: K9 and E23 side chains attached to another sequence, MMP2-cleaved product, remnants not given here) APTSSSTKKTQLQLEHLLLDLQEILNGINNYKNPKLTR[Nle]L[hSer]Y(9x polyethylene glycol‑azido)KFY(8x polyethylene glycol‑amino)[Nle]PKKATELKHLQCLEEELKPLEEVL[hSer]LAQSKNFHLRPRDLISNINVIVLELKGSETTF[hSer]CEYADETATIVEFLNRWITFSQSIISTLT
6 | 12.2 nM | CMP-317, MMP2 cleaved molecule (ligand, also: A1 attached to another sequence via 4x polyethylene glycol, E23 side chain attached to another sequence, m119 after MMP2 cleavage, product not given here as a sequence) APTSSSTKKTQLQLEHLLLDLQEILNGINNYKNPKLTR[Nle]L[hSer]Y(9x polyethylene glycol‑azido)KFY(8x polyethylene glycol‑amino)[Nle]PKKATELKHLQCLEEELKPLEEVL[hSer]LAQSKNFHLRPRDLISNINVIVLELKGSETTF[hSer]CEYADETATIVEFLNRWITFSQSIISTLT
7 | 20.3 nM | CMP-330 (ligand, bridge 9-23; not fully specified (bridges)) APTSSSTKKTQLQLEHLLLDLQEILNGINNYKNPKLTR[Nle]L[hSer]Y(9x polyethylene glycol‑azido)KFY(8x polyethylene glycol‑amino)[Nle]PKKATELKHLQCLEEELKPLEEVL[hSer]LAQSKNFHLRPRDLISNINVIVLELKGSETTF[hSer]CEYADETATIVEFLNRWITFSQSIISTLT
8 | 7.72 nM | CMP-319 (ligand, lactam N-33; ends not checked) RGRRVANLVGAPTSSSTKKTQLQLEHLLLDLQEILNGINNYKNPKLTR[Nle]L[hSer][Yn3]KF[Ygp][Nle]PKKATELKHLQCLEEELKPLEEVL[hSer]LAQSKNFHLRPRDLISNINVIVLELKGSETTF[hSer]CEYADETATIVEFLNRWITFSQSIISTLT
9 | 14.4 nM | CMP-329, Matriptase cleaved molecule (ligand, ends and bridges not checked; also: after matriptase cleavage, remnants of the Lys9–Glu23 peptide linker not given here) APTSSSTKKTQLQLEHLLLDLQEILNGINNYKNPKLTR[Nle]L[hSer][Yn3″]KF[Ygp″][Nle]PKKATELKHLQCLEEELKPLEEVL[hSer]LAQSKNFHLRPRDLISNINVIVLELKGSETTF[hSer]CEYADETATIVEFLNRWITFSQSIISTLT
10 | 20.6 nM | CMP-329 (ligand, bridge 9-23; not fully specified (bridges); ends not checked) APTSSSTKKTQLQLEHLLLDLQEILNGINNYKNPKLTR[Nle]L[hSer][Yn3″]KF[Ygp″][Nle]PKKATELKHLQCLEEELKPLEEVL[hSer]LAQSKNFHLRPRDLISNINVIVLELKGSETTF[hSer]CEYADETATIVEFLNRWITFSQSIISTLT
11 | 0.687 nM | CMP-329, MMP2 cleaved molecule (ligand, ends and bridges not checked; also: after MMP2 cleavage, remnants of the Lys9–Glu23 peptide linker not given here) APTSSSTKKTQLQLEHLLLDLQEILNGINNYKNPKLTR[Nle]L[hSer][Yn3″]KF[Ygp″][Nle]PKKATELKHLQCLEEELKPLEEVL[hSer]LAQSKNFHLRPRDLISNINVIVLELKGSETTF[hSer]CEYADETATIVEFLNRWITFSQSIISTLT
12 | 13.2 nM | CMP-320 (ligand, lactam N-34) SGRVAPQPLVDAPTSSSTKKTQLQLEHLLLDLQEILNGINNYKNPKLTR[Nle]L[hSer][Yn3(8)]KF[Ygp(8)][Nle]PKKATELKHLQCLEEELKPLEEVL[hSer]LAQSKNFHLRPRDLISNINVIVLELKGSETTF[hSer]CEYADETATIVEFLNRWITFSQSIISTLT
13 | 16.4 nM | CMP-330, Matriptase cleaved molecule (ligand, not fully specified; also: K9 and E23 side chains attached to another sequence, matriptase-cleaved product, remnants not given here) APTSSSTKKTQLQLEHLLLDLQEILNGINNYKNPKLTR[Nle]L[hSer]Y(9x polyethylene glycol‑azido)KFY(8x polyethylene glycol‑amino)[Nle]PKKATELKHLQCLEEELKPLEEVL[hSer]LAQSKNFHLRPRDLISNINVIVLELKGSETTF[hSer]CEYADETATIVEFLNRWITFSQSIISTLT
14 | 18.1 nM | CMP-329, uPa cleaved molecule (ligand, not fully specified; also: K9 and E23 side chains attached to another sequence, uPa-cleaved product, remnants not given here) APTSSSTKKTQLQLEHLLLDLQEILNGINNYKNPKLTR[Nle]L[hSer]Y(9x polyethylene glycol‑azido)KFY(8x polyethylene glycol‑amino)[Nle]PKKATELKHLQCLEEELKPLEEVL[hSer]LAQSKNFHLRPRDLISNINVIVLELKGSETTF[hSer]CEYADETATIVEFLNRWITFSQSIISTLT
15 | 4.28 nM | CMP-328, Matriptase cleaved molecule (ligand, ends and bridges not checked; also: after matriptase cleavage, remnants of the Lys9–Glu23 peptide linker not given here) APTSSSTKKTQLQLEHLLLDLQEILNGINNYKNPKLTR[Nle]L[hSer][Yn3″]KF[Ygp″][Nle]PKKATELKHLQCLEEELKPLEEVL[hSer]LAQSKNFHLRPRDLISNINVIVLELKGSETTF[hSer]CEYADETATIVEFLNRWITFSQSIISTLT
16 | 55.1 nM | CMP-321 (ligand, lactam N-32) SGRVQPLVDAPTSSSTKKTQLQLEHLLLDLQEILNGINNYKNPKLTR[Nle]L[hSer][Yn3(8)]KF[Ygp(8)][Nle]PKKATELKHLQCLEEELKPLEEVL[hSer]LAQSKNFHLRPRDLISNINVIVLELKGSETTF[hSer]CEYADETATIVEFLNRWITFSQSIISTLT
